From the nanobody polyreactivity screen of Harvey et al. (2022)

Experiment: yeast display, Sf9 membrane polyspecificity reagent, FACS + sequencing; frameworks hold sequencing errors
Outline: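 Nanobodies came from a synthetic yeast display library in Saccharomyces cerevisiae BJ5465, induced with galactose for 36–48 hours and stained for 1 hour at 4 °C with 10% biotinylated, detergent-solubilized Sf9 membrane reagent. Cells were enriched on streptavidin microbeads and then FACS-sorted, with low and high (top ~1%) gates set on anti-HA fluorescence for expression and streptavidin fluorescence for reagent binding. Each polyreactivity label reflects the gate a clone came from. Genes were amplified by colony PCR, sequenced by MiSeq 2 × 250 and filtered by CDR length.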

QVQLVESGGGLVQAGRSLRLSCAASGFTFSWYTMGWYRQAPGKERELVAAISSSGGNTYYADSVKGRFTISRDNAKNTVYLQMNSLKPEDNAVYYCVARFGSYGYYYWGQGTQVTVSS
polyreactivity (PSR sort gate): high polyreactivity

QVQLVESGGGLVQAGRSLRLSCAASGFTLTPYAMGWYRQAPGKERELVARISDSGDSTYYADSVKGRFTMSRDNAKNTVYLQMNRLKPEDTAVYYCATDWNAGIDYYRFYADEYNYWGQGSQVTVSS
polyreactivity (PSR sort gate): low polyreactivity

QVQLVESGGGLVQAGRSLRLSCAASGINFAGYAKGWYRQAPGKERELVAAISRGGSTYYADSVKGRFTISRDNAKNTVYFQMNSLIPEDTAVYYCNTYYQQGYFTYTGWNYNYWGQGTQVTVST
polyreactivity (PSR sort gate): high polyreactivity

QVQLVESGGGLVQAGRSLRLSCAASGITFSRNDMGWYRQAPGKEMQLVAAISRSGGRTYYADSVKGRFTLSRDNAKNTVYLQMNCLNPEDTAVYYCNRDIGGTSVLDDYWGQGTQVTVSS
polyreactivity (PSR sort gate): low polyreactivity

QVQLVESGGGLVQAGRSLRLSCAASGITFTGYALGWSRQATGKERELVAAISKRGARTYYADSVKGRFTISRDNAKNTVYLQMNSLKPEDTAVYYCAADSTAQDIAGLYYWGQGTQVTVSS
polyreactivity (PSR sort gate): high polyreactivity

QVQLVESGGGLVQAGRSLRLSCAASGLTFLYYAMGWYRHAPAKEMEFVAANSNRDGSTYYADSVKGRFTISRDNAKNTVYLQMNSLKPEDTAGYYCYADGYVDYCFLKYRFEFDYWGQGTQVTVSS
polyreactivity (PSR sort gate): low polyreactivity

QVQLVESGGGLVQAGRSLRLSCAASGLTFVNYTMGCYRQAPGKEREFVAAITSSGGSSTYYADSVKGRFTHSRDNAKNTVYLQMNSLYPEDTAVYYCAAGFTLYVDIVILTVNTVDYWGQGTQVTVSS
polyreactivity (PSR sort gate): low polyreactivity

QVQLVESGGGLVQAGRSLRLSCAASGNTFWFYGMGWYRQAPGKVRELVAAITSGGSTDYADSVKGRFTISRENAKNTVSLQMNSLKPEDTAVYYCAAEPVAYYGSSYGYWGQGTQVTVSS
polyreactivity (PSR sort gate): low polyreactivity

QVQLVESGGGLVQAGRSLRLSCAASGRIFTPNAMGWYRQAPGKERELVAAISSSGRTSYADSLKGRFTNTSDNAKITVYLQMNSLKPEDTAVYYCNATWRWTRRGYDYWGQGTQVTVSS
polyreactivity (PSR sort gate): low polyreactivity

QVQLVESGGGLVQAGRSLRLSCAASGRTFDEYAMGWYRQAPGKERELVAAISARGGRTYYADSVKGRFTISRDNAKNTVYLQMNSLKPEDTAVYYCAAAGYITRYDRYDYWGQGTQVTVSS
polyreactivity (PSR sort gate): high polyreactivity

QVQLVESGGGLVQAGRSLRLSCAASGRTFYHYAMGWYRQAPGKERELVAAIDWSTASTYYADSVKGRFTISRDNAKNTVYLQMNSLIQEDTAVYYCATDSAILINFVLYDYWGQGTQVTVSS
polyreactivity (PSR sort gate): low polyreactivity

QVQLVESGGGLVQAGRSLRLSCAASGRTFYYYAMVWNRQAPGKERELVAAISWRSGSTYYADSVKGRFTISRDNAKNTLYLQMNSLKPEDTAVYYCATSVRFYWFADGYWGQGTQVTVSS
polyreactivity (PSR sort gate): high polyreactivity

QVQLVESGGGLVQAGRSLRLSCAASGSIFYKYARGWYRQAPGKERELVAAISRSRGSTYYADSVKGRFTISRDNAKNTVYLQMNSLKPEDTAVYYCNAYYRYSFSELDKYGYWGQGTQVTVSS
polyreactivity (PSR sort gate): high polyreactivity

QVQLVESGGGLVQAGRSLRLSCAASGSTLTRNAMGWYRQAPGKERELVAAITQRGGSTYYADSVKGRFTISRDNAKNTVYLQMNSLKPEDTAVYYCAAAYRGYARHDYWGQGTQVNVSS
polyreactivity (PSR sort gate): high polyreactivity

QVQLVESGGGLVQAGRSLRLSCPASGSTFYTNHMGWYRQAPGKERELVAAITSAGNTNYADSVKGRFTISRDNAKNTVYLQMNSLKPEDTAVYYYYYYQYDYWGQGTQVTVSS
polyreactivity (PSR sort gate): low polyreactivity

QVQLVESGGGLVQAGSSLRLSCAASGFTFNRYAMGWYRQAPGKERELVAAISWSGGSTYYADSVKGRFTISRDNAKNTVYLQMNSLKPEDTEVYYCSDATAYYRYRGGYDYWGQGTQVTVSS
polyreactivity (PSR sort gate): high polyreactivity

QVQLVESGGGLVQAGVSLLLSCAASGSTLYYNAMGWYRQAPGKERELVAAITSGGSTSYADSVKGRFTISRDNAKHTVYLQRNSLKPEDTAVYYCAAVFYRRFDYWGQGTQVTVSS
polyreactivity (PSR sort gate): low polyreactivity

QVQLVESGGGLVQAGVSLRLRCASSGSTFAYNAMGWYRQAPGKESELVAAISTSGGYTYYADSVKGRFTISRDNAKNTVYLQMNSLKPEDTAVYYCYAVGRSKHGYSRSYYWGQGTQVTVSS
polyreactivity (PSR sort gate): high polyreactivity

QVQLVESGGGLVQAGVSLRLSCAASGFIFRTYAMGWYRQAPGKEREVVAAITGRGGTTYYADSVKGRFTISRDNAKNTVYLQMNSLKPEDTAVYYCAARGRVSVNTQRYAAYNYLGQGTQVTVSS
polyreactivity (PSR sort gate): high polyreactivity

QVQLVESGGGLVQAGVSLRLSCAASGFIYDHNAMGWYRQAPGKERELVAAITRSGGSTYYAYSVKGRFTISRDNAKNTVYLQMNSLKQEDTAVYYCNADAYGTPEFTSYAVRYDYWGQGTQVTVSS
polyreactivity (PSR sort gate): low polyreactivity

QVQLVESGGGLVQAGVSLRLSCAASGFTFSRNAMGWYRQAPGKERELVAAISRSGGSTYYAYSVKGRFTISRDNAKNTVYLQINSLKQEDTAVYYCATSCTPNYFVTSDYWGQGTQVTVSS
polyreactivity (PSR sort gate): high polyreactivity

QVQLVESGGGLVQAGVSLRLSCAASGRIFGPYAMGWYRQAPGKERELVAAITWRGDRTYYADSVKGRFTISRDNAKNTVYLQMNSLKPEDTAVYYCAARGGRSEYDYWGLGTQVTVSS
polyreactivity (PSR sort gate): low polyreactivity
